Reference: the supplement of paper PMC7877785
± gives the uncertainty stated by the source.

Experiment: self-splicing fitness, log relative to wild type (ln ratio); higher = more splicing; Tetrahymena group I intron in knt gene, E. coli kanamycin selection, DiMSum; sequences stand for … in CUCUCU…GGAGGGAAAAGUUAUCAGGCAUGCACCUGGUAGCUAGUCUUUAAACCAAUAGAUUGCAUCGGUUUAAAAGGCAAGACCGUCAAAUUGCGGGAAAGGGGUCAACAGCCGUUCAGUACCAAGUCUCAGGGGAAACUUUGAGAUGGCCUUGCAAAGGGUAUGGUAAUAAGCUGACGGACAUGGUCCUAACCACGCAGCCAAGUCCUAAGUCAACAGAUCUUCUGUUGAUAUGGAUGCAGUUCACAGACUAAAUGUCGGUCGGGGAAGAUGUAUUCUUCUCAUAAGAUAUAGUCGGACCUCUCCUUAAUGGGAGCUAGCGGAUGAAGUGAUGCAACACUGGAGCCGCUGGGAACUAAUUUGUAUGCGAAAGUAUAUUGAUUAGUUUUGGAGUACUCGUGGUCG
Summary of the method: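 Colonies from six replicate transformations of E. coli BL21(DE3) were pooled and amplicon-sequenced on an Illumina HiSeq 2500. The library placed an intron with all eight P1ex-region nucleotides randomised inside the knt kanamycin-resistance gene on pET-22b(+), and cells grew overnight at 37°C or 30°C on LB agar with or without 25 μg/mL kanamycin (plus 100 μg/mL carbenicillin, 50 μM IPTG, 0.2% rhamnose). Fitness is the DiMSum error-weighted combination of wild-type-normalised replicate fold changes, kanamycin versus none.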

Sequence	self-splicing fitness (ln) (30 °C)	self-splicing fitness (ln) (37 °C)
AACCAGCAAUAUUACGCGCA	-0.111 ± 0.068	-0.00763 ± 0.089
AACCAGCAAUAUUACGCUCA	-0.325 ± 0.049	0.493 ± 0.072
AACCAGCAAUAUUACGCUGA	-2.56 ± 0.1	-1.51 ± 0.094
AACCAGCAAUAUUACGCUUG	-1.94 ± 0.089	-1.07 ± 0.11
AACCAGCAAUAUUACGGAAA	-1.73 ± 0.097	-0.275 ± 0.088
AACCAGCAAUAUUACGGACU	-0.113 ± 0.061	0.226 ± 0.082
AACCAGCAAUAUUACGGCGU	0.196 ± 0.054	0.259 ± 0.068
AACCAGCAAUAUUACGGGAC	-2.39 ± 0.094	-2.11 ± 0.09
AACCAGCAAUAUUACGGUGC	-3.48 ± 0.16	-1.75 ± 0.13
AACCAGCAAUAUUACGGUGU	-1.87 ± 0.061	-2.56 ± 0.11
AACCAGCAAUAUUACGGUUA	-2.14 ± 0.099	-0.269 ± 0.084
AACCAGCAAUAUUACGUACG	-1.42 ± 0.063	-0.431 ± 0.067
AACCAGCAAUAUUACGUCAG	-2.3 ± 0.079	-1.49 ± 0.086
AACCAGCAAUAUUACGUCAU	-1.23 ± 0.063	-1.14 ± 0.067
AACCAGCAAUAUUACGUCGG	-3.79 ± 0.12	-1.41 ± 0.094
AACCAGCAAUAUUACGUUGA	-1.65 ± 0.083	-0.421 ± 0.087
AACGAGCAAUAUUACGAACG	-3.03 ± 0.45	-1.37 ± 0.28
AACGAGCAAUAUUACGACAU	-2.2 ± 0.015	-1.33 ± 0.033
AACGAGCAAUAUUACGAGGU	-3.56 ± 0.18	-1.96 ± 0.16
AACGAGCAAUAUUACGAUAC	-2.52 ± 0.37	-1.97 ± 0.46
AACGAGCAAUAUUACGAUAU	-3.13 ± 0.21	-1.3 ± 0.17
AACGAGCAAUAUUACGAUCG	-1.19 ± 0.14	-1.06 ± 0.16
AACGAGCAAUAUUACGAUUC	–	0.32 ± 0.17
AACGAGCAAUAUUACGCAUG	-4.23 ± 0.31	-2.76 ± 0.29

Sequence	self-splicing fitness (ln) (30 °C)	self-splicing fitness (ln) (37 °C)
AACGAGCAAUAUUACGGCCG	-1.2 ± 0.12	-1.07 ± 0.21
AACGAGCAAUAUUACGUGCU	-3.09 ± 0.21	-2.16 ± 0.28
AACGAGCAAUAUUACGUGGG	-3.94 ± 0.15	-2.7 ± 0.12
AACGAGCAAUAUUACGUUCG	-3 ± 0.48	-1.19 ± 0.2
AACUAGCAAUAUUACGAAUC	-2.81 ± 0.17	-1.27 ± 0.19
AACUAGCAAUAUUACGACAA	-0.829 ± 0.064	-0.603 ± 0.066
AACUAGCAAUAUUACGACAU	-0.187 ± 0.011	0.0705 ± 0.032
AACUAGCAAUAUUACGAGAA	-2.64 ± 0.48	-1.71 ± 0.22
AACUAGCAAUAUUACGAGGG	-2.13 ± 0.12	-2.24 ± 0.19
AACUAGCAAUAUUACGAGGU	-3.14 ± 0.3	-2.01 ± 0.25
AACUAGCAAUAUUACGAUAA	-1.41 ± 0.099	-0.94 ± 0.099
AACUAGCAAUAUUACGAUGA	-0.741 ± 0.079	-0.0286 ± 0.08
AACUAGCAAUAUUACGCCCU	0.324 ± 0.067	-0.165 ± 0.08
AACUAGCAAUAUUACGCCUC	-2.29 ± 0.3	-0.975 ± 0.24
AACUAGCAAUAUUACGCGCA	-0.47 ± 0.099	0.116 ± 0.12
AACUAGCAAUAUUACGGACG	-1.21 ± 0.06	-0.904 ± 0.072
AACUAGCAAUAUUACGGAGA	-2.62 ± 0.23	-1.35 ± 0.2
AACUAGCAAUAUUACGGAGU	-2.95 ± 0.13	-1.42 ± 0.13
AACUAGCAAUAUUACGGGAG	-1.35 ± 0.11	-1.21 ± 0.13
AACUAGCAAUAUUACGGGCC	-1.81 ± 0.12	-1.36 ± 0.14
AACUAGCAAUAUUACGGGUU	-3.03 ± 0.12	-2.82 ± 0.17
AACUAGCAAUAUUACGGUAC	-3.39 ± 0.28	-1.9 ± 0.17
AACUAGCAAUAUUACGGUCC	-0.628 ± 0.13	-0.637 ± 0.15
AACUAGCAAUAUUACGGUGG	-2.14 ± 0.079	-0.926 ± 0.086
